Measured values from US20250000946A1 (WUXI BIOLOGICS IRELAND, published 2025).
Residue numbers refer to the chain shown, from its start. In names and notes the source's numbering stands. Where two headings read alike, the source gives them in different places. One block for each binder: values may come before it.

Assays:
[1] = target: T1, Human IL-2Rβ/γ (intermediate affinity IL-2 receptor) (human, UniProt P14784 27-551; P31785 23-369); test: FACS, HH cells; EC50 fold vs T2U0.E44-1
T1 construct: whole, on cells; also called IL-2Rβ/γc; IL-2Rβ (CD122) and γ (CD132)
T1 sequence (looked up) 1: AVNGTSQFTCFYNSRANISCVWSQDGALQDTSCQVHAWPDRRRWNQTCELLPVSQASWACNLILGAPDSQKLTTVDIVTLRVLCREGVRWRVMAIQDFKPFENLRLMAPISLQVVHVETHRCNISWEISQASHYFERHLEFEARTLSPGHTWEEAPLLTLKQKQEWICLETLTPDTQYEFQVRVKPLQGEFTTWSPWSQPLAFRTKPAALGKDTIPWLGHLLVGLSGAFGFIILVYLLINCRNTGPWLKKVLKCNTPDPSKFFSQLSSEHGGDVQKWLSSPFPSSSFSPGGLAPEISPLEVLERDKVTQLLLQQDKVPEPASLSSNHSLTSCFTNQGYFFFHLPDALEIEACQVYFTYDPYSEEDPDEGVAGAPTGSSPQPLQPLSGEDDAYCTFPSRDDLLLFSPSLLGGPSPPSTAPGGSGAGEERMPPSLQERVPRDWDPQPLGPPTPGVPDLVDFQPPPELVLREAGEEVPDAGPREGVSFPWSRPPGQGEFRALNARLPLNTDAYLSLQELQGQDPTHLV
T1 sequence (looked up) 2: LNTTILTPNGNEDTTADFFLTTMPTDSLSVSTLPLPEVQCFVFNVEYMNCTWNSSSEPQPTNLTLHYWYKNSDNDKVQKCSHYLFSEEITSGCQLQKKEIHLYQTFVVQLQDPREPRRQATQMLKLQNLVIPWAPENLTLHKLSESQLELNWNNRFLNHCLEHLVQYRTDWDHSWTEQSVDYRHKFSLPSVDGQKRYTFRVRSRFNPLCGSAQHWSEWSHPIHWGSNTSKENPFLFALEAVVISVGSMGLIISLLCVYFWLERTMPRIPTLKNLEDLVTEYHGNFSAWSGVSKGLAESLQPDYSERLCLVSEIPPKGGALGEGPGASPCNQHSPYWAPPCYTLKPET
Description: (§1) Human cutaneous T cell lymphoma HH cells, malignant non-Hodgkin's lymphoma NK92 cells and cutaneous T cell lymphoma MJ20 cells were used for binding assay. They both constitutively express IL-2Rβ (CD122) and […] (CD132), and NK92 and MJ20 also expresses IL-2Rα (CD25). HH, NK92 and MJ20 cells were cultured following ATCC guidance, then transferred to a 96-plate for binding analysis. Cells were incubated with IL-2/Fc fusion proteins at the indicated concentrations for 30 min at 4° C. to avoid internalization. Binding was detected by 2nd antibody of PE-anti-human Fc at 4° C. for another 30 min. The median fluorescence intensity (MFI) on HH and NK92 cells was measured using FACS.

[2] = target: T1, Human IL-2Rβ/γ (intermediate affinity …); test: FACS, HH cells
Description: as §1

[3] = target: T2, Human IL-2Rα/β/γ complex (high affinity IL-2 receptor) (human, UniProt P01589 22-272; P14784 27-551; P31785 23-369); test: FACS, MJ20 cells; EC50 fold vs T2U0.E44-1
T2 construct: whole, on cells
T2 sequence (looked up) 1: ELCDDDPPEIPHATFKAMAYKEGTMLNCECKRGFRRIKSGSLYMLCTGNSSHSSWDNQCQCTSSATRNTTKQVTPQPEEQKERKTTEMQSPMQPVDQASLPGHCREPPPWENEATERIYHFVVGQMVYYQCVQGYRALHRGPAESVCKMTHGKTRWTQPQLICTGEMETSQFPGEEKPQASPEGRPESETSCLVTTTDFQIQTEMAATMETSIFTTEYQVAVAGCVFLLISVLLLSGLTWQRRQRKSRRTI
T2 sequence (looked up) 2: T1 sequence (looked up) 1
T2 sequence (looked up) 3: T1 sequence (looked up) 2
Description: as §1
(§2) Affinity of IL-2 variants to IL-2Rα/β/γ supported the same results (FIG. 8 and Table 7). […] And T2U0.E44-26, T2U0.E44-27, T2U0.E44-29 and T2U0.E44-30 induced hundreds to thousands affinity reduction in Treg compared to T2U0.E44-1. Binding curves in MJ20 cells (IL-2Rα/β/γ) also achieved similar trend (FIG. 8b). As a result, the method of C-terminal truncation and substitution of 129 was available to achieve IL-2Rβγ attenuated IL-2 variants.

[4] = target: T2, Human IL-2Rα/β/γ complex (high affinity …); test: FACS, MJ20 cells
Description: as §1, §2

[5] = target: T1, Human IL-2Rβ/γ (intermediate affinity …); test: cell-based or functional assay
[6] = target: T2, Human IL-2Rα/β/γ complex (high affinity …); test: cell-based or functional assay
[7] = target: T1, Human IL-2Rβ/γ (intermediate affinity …); test: FACS, HH cells; EC50 fold vs T2U0.E44-1; remark: listed apart in the source
Description: as §1

[8] = target: T2, Human IL-2Rα/β/γ complex (high affinity …); test: FACS, NK92 cells; EC50 fold vs T2U0.E44-1
Description: as §1

[9] = target: T1, Human IL-2Rβ/γ (intermediate affinity …); test: cell-based or functional assay; remark: listed apart in the source
[10] = target: T2, Human IL-2Rα/β/γ complex (high affinity …); test: cell-based or functional assay; remark: listed apart in the source
[11] = target: T2, Human IL-2Rα/β/γ complex (high affinity …); test: FACS, NK92 cells
Description: as §1

[12] = target: T1, Human IL-2Rβ/γ (intermediate affinity …); test: FACS, HH cells; remark: listed apart in the source
Description: as §1

[13] = target: T1, Human IL-2Rβ/γ (intermediate affinity …); test: cell-based or functional assay; remark: listed apart in the source
[14] = target: T2, Human IL-2Rα/β/γ complex (high affinity …); test: cell-based or functional assay; remark: listed apart in the source
[15] = target: T2, Human IL-2Rα/β/γ complex (high affinity …); test: FACS, MJ20 cells; remark: listed apart in the source
Description: as §1

[16] = target: T2, Human IL-2Rα/β/γ complex (high affinity …); test: FACS, MJ20 cells; EC50 fold vs T2U0.E44-1; remark: listed apart in the source
Description: as §1

B1: W3XX115-T2U0.E44-6.uIgG4V1 (Fc fusion)
chain: APTSSSTKKTQLQLEHLLLDLQMILNGINNYKNPKLTRMLTFKFYMPKKATELKHLQCLEEELKPLEEVLNLAQSKNFHLRPRDLISNINVIVLELKGSETTFMCEYADETATIVEFLNRWITFCQSIIESKYGPPCPPCPAPEFLGGPSVFLFPPKPKDTLMISRTPEVTCVVVDVSQEDPEVQFNWYVDGVEVHNAKTKPREEQFNSTYRVVSVLTVLHQDWLNGKEYKCKVSNKGLPSSIEKTISKAKGQPREPQVYTLPPCQEEMTKNQVSLWCLVKGFYPSDIAVEWESNGQPENNYKTTPPVLDSDGSFFLYSRLTVDKSRWQEGNVFSCSVMHEALHNHYTQKSLSLSLG
heavy: EIQLQQSGPELVKPGASVKVSCKASGYSFTDYNMYWVKQSHGESLEWIGYIDPYNGGTRYNQKFKGKATLTVDKSSSTAFMHLNSLTSEDSAVYYCARNGHWDGAWFAYWGQGTLVTVSAASTKGPSVFPLAPCSRSTSESTAALGCLVKDYFPEPVTVSWNSGALTSGVHTFPAVLQSSGLYSLSSVVTVPSSSLGTKTYTCNVDHKPSNTKVDKRVESKYGPPCPPCPAPEFLGGPSVFLFPPKPKDTLMISRTPEVTCVVVDVSQEDPEVQFNWYVDGVEVHNAKTKPREEQFNSTYRVVSVLTVLHQDWLNGKEYKCKVSNKGLPSSIEKTISKAKGQPREPQVCTLPPSQEEMTKNQVSLSCAVKGFYPSDIAVEWESNGQPENNYKTTPPVLDSDGSFFLVSRLTVDKSRWQEGNVFSCSVMHEALHNHYTQKSLSLSLG
light: DIQMNQSPSSLSASLGDTITITCHASQNINVWLSWYQQKPGNIPKLLIYKASNLHTGVPSRFSGSRSGTGFTLTISSLQPEDIATYYCHQGQSYPFTFGSGTKLEIKRTVAAPSVFIFPPSDEQLKSGTASVVCLLNNFYPREAKVQWKVDNALQSGNSQESVTEQDSKDSTYSLSSTLTLSKADYEKHKVYACEVTHQGLSSPVTKSFNRGEC
notes: IL-2 with C-terminal 4 aa (STLT) deleted; E44 format, IgG4
- Affinity reduction [1]: 14.1 fold
- EC50 [2]: 533 nM
- Affinity reduction [3]: 4 fold
- EC50 [4]: 56.6 nM
- Potency in human CD8+ T EC50 [5]: 360 nM
- Potency reduction (CD8+ T) [5]: 18 fold
- Potency in human Treg EC50 [6]: 0.032 nM
- Potency reduction (Treg) [6]: 12.6 fold
- Affinity reduction [7]: 9.9 fold
- Affinity reduction [8]: 2.48 fold
- Potency in human CD8+ T EC50 [9]: 175 nM
- Potency reduction (CD8+ T) [9]: 18.3 fold
- Potency in human Treg EC50 [10]: 1.51 nM
- Potency reduction (Treg) [10]: 58.4 fold
- EC50 [11]: 13.7 nM
- EC50 [12]: 437 nM

B3: W3XX115-T2U0.E44-35.uIgG4V322 (Fc fusion)
chain: B1 chain with S127T, F145A, L146A
heavy: B1 heavy with F234A, L235A
light: B1 light
notes: IL-2 del STLT and S127T; E44 format, IgG4 FALA
- Affinity reduction [1]: 10.9 fold
- Potency in human CD8+ T EC50 [13]: 10.7 nM
- Potency reduction (CD8+ T) [13]: 1.1 fold
- Potency in human Treg EC50 [14]: 0.073 nM
- Potency reduction (Treg) [14]: 37.1 fold
- EC50 [15]: 92.8 nM
- Affinity reduction [16]: 2.2 fold
- EC50 [12]: 576 nM

B6: W3XX115-T2U0.E44-34.uIgG4V322 (Fc fusion)
chain: B1 chain with S127A, F145A, L146A
heavy: B1 heavy with F234A, L235A
light: B1 light
notes: IL-2 del STLT and S127A; E44 format, IgG4 FALA
- Affinity reduction [1]: 13.7 fold
- Potency in human CD8+ T EC50 [13]: 180 nM
- Potency reduction (CD8+ T) [13]: 17.7 fold
- Potency in human Treg EC50 [14]: 0.21 nM
- Potency reduction (Treg) [14]: 104 fold
- EC50 [15]: 60.9 nM
- Affinity reduction [16]: 1.5 fold
- EC50 [12]: 720 nM

B7: W3XX115-T2U0.E44-36.uIgG4V322 (Fc fusion)
chain: B1 chain with S127D, F145A, L146A
heavy: B1 heavy with F234A, L235A
light: B1 light
notes: IL-2 del STLT and S127D; E44 format, IgG4 FALA
- Affinity reduction [1]: 25.1 fold
- Potency in human CD8+ T EC50 [13]: ~12.2 nM
- Potency in human Treg EC50 [14]: 0.1 nM
- Potency reduction (Treg) [14]: 52.2 fold
- EC50 [15]: 98.5 nM
- Affinity reduction [16]: 2.4 fold
- EC50 [12]: 1320 nM

The remaining lines, values ahead:

- Affinity reduction [1]: 400000 fold
- Potency in human CD8+ T EC50 [13]: 268 nM
- Potency reduction (CD8+ T) [13]: 26.3 fold
- Potency in human Treg EC50 [14]: 5 nM
- Potency reduction (Treg) [14]: 2540 fold
- EC50 [15]: 201 nM
- Affinity reduction [16]: 4.8 fold
B2: W3XX115-T2U0.E44-38.uIgG4V322 (Fc fusion)
chain: B1 chain with C125A, F145A, L146A
heavy: B1 heavy with F234A, L235A
light: B1 light
notes: IL-2 del STLT and C125A; E44 format, IgG4 FALA

- Affinity reduction [1]: 6.8 fold
- Potency in human CD8+ T EC50 [13]: 99.9 nM
- Potency reduction (CD8+ T) [13]: 9.8 fold
- Potency in human Treg EC50 [14]: 2 nM
- Potency reduction (Treg) [14]: 1020 fold
- EC50 [15]: 74200 nM
- Affinity reduction [16]: 1770 fold
- EC50 [12]: 355 nM
B4: W3XX115-T2U0.E44-39.uIgG4V322 (Fc fusion)
chain: B1 chain with I128A, F145A, L146A
heavy: B1 heavy with F234A, L235A
light: B1 light
notes: IL-2 del STLT and I128A; E44 format, IgG4 FALA

- Affinity reduction [1]: 190000 fold
- Potency in human CD8+ T EC50 [13]: ~17.6 nM
- Potency in human Treg EC50 [14]: 8 nM
- Potency reduction (Treg) [14]: 4060 fold
- EC50 [15]: 87.7 nM
- Affinity reduction [16]: 2.1 fold
B5: W3XX115-T2U0.E44-37.uIgG4V322 (Fc fusion)
chain: B1 chain with S127N, I129S, F145A, L146A
heavy: B1 heavy with F234A, L235A
light: B1 light
notes: IL-2 del STLT, S127N and I129S (glycosylation design); E44 format, IgG4 FALA
